According to patent US8524666 (IBCC, dated 2013):

Tests used:
Assay in all cases: GST pull-down from transfected MCF-7 lysate, western blot
[1] = target: T1, vimentin deletion mutant containing aa 97-466 of SEQ ID NO: 1 (human, UniProt P08670 97-464)
T1 construct: Tested in lysate of transfected MCF-7 cells; The forward oligo carries an ATG start codon before the fragment; not shown: C-terminal Myc and His tags of the pcDNA3.1/MycHis B vector
Description: (§1) Full length vimentin or its deletion mutant constructs were transfected into MCF-7 cells. After incubation cells were lysed and lysate was used in pull-down reaction using GST-tagged CD44-HABD proteins immobilised onto glutathione sepharose beads. After pull-down, beads were washed and bound proteins were eluted. Eluates were analysed on western blot. A, vimentin deletion mutants used in pull-down reactions. B, WB of pull-down reactions from vimentin and its deletion mutant transfected cell lysates.
(§2) CD44-3MUT binding of vimentin deletion mutants was tested using GST pull-down from cell lysates. MCF-7 cells were transfected with vimentin deletion-constructs on 15 cm cell culture plates using 20 µg DNA with polyethyleneimine (PEI; DNA and PEI were used in ratio 1:2). Transfected cells were incubated at 37° C. for 72 h. Thereafter, adherent cells were washed once with cold PBS and lysed in 2 ml of lysis buffer containing 50 mM Tris pH 8.0, 50 mM NaCl, 2% CHAPS and protease inhibitor cocktail (Roche). For removal of insoluble material the lysates were centrifuged 14000 rpm 30 min at 4° C. Resulting lysates were used in GST pull-down. For pull-down 10 µg GST, GST-HABD or GST-3MUT were immobilised onto glutathione sepharose 4 fast flow beads (GE Healthcare) in 0.5 ml of PBS. Cell lysates were precleared by incubating the lysates with GST-coupled glutathione beads for 2 h at 4° C. with continuous rotation. After preclearing, the lysates (0.6 vol per reaction) were incubated over-night at 4° C. with GST, GST-HABD or GST-3MUT proteins immobilised onto 25 µl glutathione sepharose beads. After pull-down reactions, beads were washed 4 times with 0.3 ml vol wash buffer containing 50 mM Tris pH 8.0, 150 mM NaCl and protease inhibitor cocktail. Bound proteins were eluted 3 times with 25 µl volume elution buffer 20 mM reduced glutathione, 50 mM Tris pH 8.0. Eluates were pooled and after SDS PAAG pull-down reactions were analysed by western blotting with anti-His specific pAb (H-15) (Santa Cruz Biotechnology) or anti-vimentin specific pAb (Genway).

[2] = target: T2, vimentin deletion mutant containing aa 134-466 of SEQ ID NO: 1 (human, UniProt P08670 134-464)
T2 construct: Tested in lysate of transfected MCF-7 cells; not shown: EGFP and linker of the pEGFP-C3 vector
Description: as §1, §2

[3] = target: T3, vimentin deletion mutant containing aa 407-466 of SEQ ID NO: 1 (human, UniProt P08670 407-464)
T3 construct: Tested in lysate of transfected MCF-7 cells; not shown: EGFP and linker of the pEGFP-C2 vector
Description: as §1, §2

Measured: binding result

T1 sequence (P08670 other isoform, or with tags, fused parts or gaps mutant): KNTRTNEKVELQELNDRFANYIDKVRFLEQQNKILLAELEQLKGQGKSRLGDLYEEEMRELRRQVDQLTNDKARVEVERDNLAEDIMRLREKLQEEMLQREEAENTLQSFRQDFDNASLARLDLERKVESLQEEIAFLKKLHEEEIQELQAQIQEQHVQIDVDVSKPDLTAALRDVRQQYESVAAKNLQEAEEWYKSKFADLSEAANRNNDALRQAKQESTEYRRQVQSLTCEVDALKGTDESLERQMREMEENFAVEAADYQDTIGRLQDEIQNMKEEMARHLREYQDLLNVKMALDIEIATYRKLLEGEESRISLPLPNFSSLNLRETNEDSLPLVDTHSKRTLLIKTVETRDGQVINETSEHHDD
T3 sequence (P08670 other isoform, or with tags, fused parts or gaps mutant): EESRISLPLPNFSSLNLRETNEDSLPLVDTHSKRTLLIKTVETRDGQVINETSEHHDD
T2 sequence (P08670 other isoform, or with tags, fused parts or gaps mutant): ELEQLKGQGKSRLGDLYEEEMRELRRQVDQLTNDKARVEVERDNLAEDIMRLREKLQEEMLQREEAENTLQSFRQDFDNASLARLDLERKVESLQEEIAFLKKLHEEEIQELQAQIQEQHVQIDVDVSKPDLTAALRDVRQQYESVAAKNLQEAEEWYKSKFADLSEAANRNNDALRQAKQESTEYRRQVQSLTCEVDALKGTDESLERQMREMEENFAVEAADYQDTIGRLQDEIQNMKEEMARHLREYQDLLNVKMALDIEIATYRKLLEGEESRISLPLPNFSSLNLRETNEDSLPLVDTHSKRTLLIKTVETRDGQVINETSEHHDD

B1: GST tagged CD44-HABD R41AR78SY79S mutant (CD44-3MUT) (other, not shown: a dimerising Fc or GST; small tags and cut ends)
chain: QIDLNMTCRFAGVFHVEKNGAYSISRTEAADLCKAFNSTLPTMAQMEKALSIGFETCSSGFIEGHVVIPRIHPNSICAANNTGVYILTSNTSQYDTYCFNASAPPEEDCTSV
notes: Immobilised on glutathione sepharose beads in the pull-downs; also called GST-3MUT; GST-SB101
no binding: [1] | [2] | [3]
